Measurements taken from the supplement of paper PMC9112550, “Optimization of the antimicrobial peptide Bac7 by deep mutational scanning” (BMC Biology, 2022).

The sequences below were run on Escherichia coli TOP10 (assay: shrunken log2 fold change of peptide-encoding DNA abundance (4.5 h post-induction vs induction); higher = less antimicrobial activity (less host growth inhibition)). Settings: time post-induction: 4.5 h; library: site-saturation at positions 5, 18, 19, 20.
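Also: peptides expressed intracellularly from a pBAD plasmid library in pooled LB shake-flask culture, induced with 0.3% L-arabinose, DNA abundance read by NGS, three biological replicates, DESeq2 with apeglm shrinkage.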

Sequence | shrunken log2 fold change
RRIRHRPPRLPRPRPRPTPRPRP | 0.609
RRIRCRPPRLPRPRPRPMRVPRP | 0.839
RRIRCRPPRLPRPRPRPHWGPRP | 0.143
RRIRQRPPRLPRPRPRPGEYPRP | -0.0469
RRIRKRPPRLPRPRPRPFPRPRP | 0.297
RRIRDRPPRLPRPRPRPWQLPRP | 0.0822
RRIRCRPPRLPRPRPRPWDDPRP | 0.0755
RRIRWRPPRLPRPRPRPYQVPRP | -0.268
RRIRPRPPRLPRPRPRPCQEPRP | -0.0635
RRIRGRPPRLPRPRPRPREEPRP | 1.57
RRIRMRPPRLPRPRPRPDTCPRP | 1.25
RRIRHRPPRLPRPRPRPVFTPRP | -0.392
RRIRMRPPRLPRPRPRPENWPRP | 0.795
RRIRQRPPRLPRPRPRPLVPPRP | 0.253
RRIRKRPPRLPRPRPRPTGQPRP | 0.84
RRIRFRPPRLPRPRPRPEAFPRP | 1.82
RRIRMRPPRLPRPRPRPKGAPRP | 1.76
RRIRFRPPRLPRPRPRPARHPRP | 0.262
RRIRYRPPRLPRPRPRPWWSPRP | -0.0117
RRIRRRPPRLPRPRPRPWWMPRP | 0.386
RRIRFRPPRLPRPRPRPRGYPRP | -0.25
RRIRSRPPRLPRPRPRPQFDPRP | -0.00423
RRIRLRPPRLPRPRPRPEQMPRP | 0.126
RRIRPRPPRLPRPRPRPRRWPRP | 0.56
RRIRSRPPRLPRPRPRPITFPRP | -0.716

Sequence | shrunken log2 fold change
RRIRGRPPRLPRPRPRPNRCPRP | 0.422
RRIRIRPPRLPRPRPRPGSIPRP | -0.471
RRIRHRPPRLPRPRPRPEHVPRP | 0.0342
RRIRHRPPRLPRPRPRPPYWPRP | 1.65
RRIRHRPPRLPRPRPRPQSSPRP | -0.0152
RRIRERPPRLPRPRPRPDLHPRP | -0.262
RRIRMRPPRLPRPRPRPTWSPRP | 0.66
RRIRGRPPRLPRPRPRPHRVPRP | 0.0916
RRIRGRPPRLPRPRPRPEQWPRP | 0.346
RRIRRRPPRLPRPRPRPIRDPRP | 0.196
RRIRIRPPRLPRPRPRPTTDPRP | -0.0551
RRIRFRPPRLPRPRPRPEMIPRP | 0.169
RRIRWRPPRLPRPRPRPHIGPRP | -0.079
RRIRTRPPRLPRPRPRPPYSPRP | -0.135
RRIRWRPPRLPRPRPRPYHPPRP | -1.08
RRIRARPPRLPRPRPRPPPRPRP | 1.56
RRIRTRPPRLPRPRPRPKWHPRP | -0.0752
RRIRCRPPRLPRPRPRPACKPRP | -0.312
RRIRNRPPRLPRPRPRPDELPRP | -0.134
RRIRFRPPRLPRPRPRPAYEPRP | 0.0737
RRIRPRPPRLPRPRPRPHRYPRP | -0.136
RRIRLRPPRLPRPRPRPNDKPRP | -0.962
RRIRGRPPRLPRPRPRPHPCPRP | 0.922
RRIRARPPRLPRPRPRPLVRPRP | 0.264
RRIRRRPPRLPRPRPRPLENPRP | 0.194

Sequence | shrunken log2 fold change
RRIRRRPPRLPRPRPRPFRVPRP | 0.12
RRIRTRPPRLPRPRPRPWLNPRP | -0.0665
RRIRDRPPRLPRPRPRPRRHPRP | 0.172
RRIRARPPRLPRPRPRPLTDPRP | 0.163
RRIRTRPPRLPRPRPRPTNNPRP | -0.618
RRIRFRPPRLPRPRPRPVAHPRP | -0.113
RRIRPRPPRLPRPRPRPKIVPRP | 0.026
RRIRPRPPRLPRPRPRPNVRPRP | -0.163
RRIRCRPPRLPRPRPRPVGIPRP | -0.24
RRIRRRPPRLPRPRPRPGQRPRP | 0.386
RRIRDRPPRLPRPRPRPETNPRP | 0.443
RRIRMRPPRLPRPRPRPSAIPRP | 0.476
RRIRWRPPRLPRPRPRPSFRPRP | -0.261
RRIRIRPPRLPRPRPRPITIPRP | -0.436
RRIRLRPPRLPRPRPRPRTKPRP | 0.567
RRIRFRPPRLPRPRPRPAMCPRP | -0.596
RRIRARPPRLPRPRPRPLDWPRP | 1
RRIRTRPPRLPRPRPRPNETPRP | 0.0139
RRIRFRPPRLPRPRPRPSSSPRP | -0.625
RRIRYRPPRLPRPRPRPIWQPRP | -0.105
RRIRDRPPRLPRPRPRPYICPRP | -0.148
RRIRCRPPRLPRPRPRPWWRPRP | 0.157
RRIRARPPRLPRPRPRPRTCPRP | 0.181
RRIRCRPPRLPRPRPRPNFCPRP | -0.157
RRIRCRPPRLPRPRPRPRYEPRP | -0.0468

Sequence | shrunken log2 fold change
RRIRDRPPRLPRPRPRPILTPRP | -0.0144
RRIRKRPPRLPRPRPRPFHKPRP | -0.00277
RRIRPRPPRLPRPRPRPQSSPRP | -0.0675
RRIRRRPPRLPRPRPRPKTYPRP | -0.239
RRIRMRPPRLPRPRPRPREVPRP | 1.8
RRIRLRPPRLPRPRPRPPYRPRP | -0.0286
RRIRPRPPRLPRPRPRPEAMPRP | 0.0142
RRIRLRPPRLPRPRPRPHYNPRP | -0.779
RRIRGRPPRLPRPRPRPCHEPRP | 0.492
RRIRFRPPRLPRPRPRPIHPPRP | -0.385
RRIRHRPPRLPRPRPRPLWTPRP | -0.174
RRIRHRPPRLPRPRPRPGGTPRP | 0.0131
RRIRPRPPRLPRPRPRPEDHPRP | -0.131
RRIRLRPPRLPRPRPRPECAPRP | 0.65
RRIRSRPPRLPRPRPRPIIQPRP | -0.429
RRIRYRPPRLPRPRPRPNPCPRP | -0.0242
RRIRTRPPRLPRPRPRPAIQPRP | -0.216
RRIRNRPPRLPRPRPRPRQEPRP | 0.00772
RRIRSRPPRLPRPRPRPVIKPRP | -0.476
RRIRRRPPRLPRPRPRPYNAPRP | -0.964
RRIRGRPPRLPRPRPRPMLLPRP | 0.548
RRIRCRPPRLPRPRPRPSHEPRP | -0.334
RRIRLRPPRLPRPRPRPYTQPRP | -0.845
RRIRIRPPRLPRPRPRPLKHPRP | -0.58
RRIRDRPPRLPRPRPRPFANPRP | -0.177

Sequence | shrunken log2 fold change
RRIRARPPRLPRPRPRPRHDPRP | 0.128
RRIRDRPPRLPRPRPRPGWFPRP | 0.297
RRIRARPPRLPRPRPRPIYTPRP | -0.387
RRIRRRPPRLPRPRPRPYSLPRP | -0.0861
RRIRDRPPRLPRPRPRPNYAPRP | -0.457
RRIRRRPPRLPRPRPRPRTLPRP | 0.311
RRIRVRPPRLPRPRPRPICWPRP | 0.0488
RRIRDRPPRLPRPRPRPFACPRP | 0.107
RRIRERPPRLPRPRPRPENIPRP | -0.227
RRIRGRPPRLPRPRPRPDPEPRP | 0.593
RRIRDRPPRLPRPRPRPNRMPRP | -0.196
RRIRARPPRLPRPRPRPFYFPRP | 0.00316
RRIRARPPRLPRPRPRPVHNPRP | 0.11
RRIRQRPPRLPRPRPRPVIEPRP | 0.162
RRIRNRPPRLPRPRPRPGNAPRP | 0.0258
RRIRVRPPRLPRPRPRPAKNPRP | 0.153
RRIRFRPPRLPRPRPRPAWDPRP | 0.0926
RRIRNRPPRLPRPRPRPTQAPRP | 0.24
RRIRERPPRLPRPRPRPVMKPRP | -0.236
RRIRRRPPRLPRPRPRPYQAPRP | -0.303
RRIRERPPRLPRPRPRPLWQPRP | 0.113
RRIRLRPPRLPRPRPRPQIAPRP | -0.0971
RRIRCRPPRLPRPRPRPTEPPRP | 0.305
RRIRMRPPRLPRPRPRPFWYPRP | -0.0609
RRIRQRPPRLPRPRPRPKWWPRP | -0.0687

Sequence | shrunken log2 fold change
RRIRQRPPRLPRPRPRPIKWPRP | 0.00957
RRIRMRPPRLPRPRPRPKWWPRP | 0.755
RRIRKRPPRLPRPRPRPSGIPRP | 0.149
RRIRNRPPRLPRPRPRPNDLPRP | -0.0167
RRIRHRPPRLPRPRPRPQSPPRP | 0.0863
RRIRHRPPRLPRPRPRPGIKPRP | 0.0126
RRIRERPPRLPRPRPRPYEWPRP | -0.00963
RRIRLRPPRLPRPRPRPGPIPRP | 0.195
RRIRLRPPRLPRPRPRPLYLPRP | -0.837
RRIRPRPPRLPRPRPRPKQCPRP | 0.147
RRIRYRPPRLPRPRPRPLAFPRP | -0.827
RRIRQRPPRLPRPRPRPVQKPRP | 0.25
RRIRWRPPRLPRPRPRPGLHPRP | 0.237
RRIRARPPRLPRPRPRPFDQPRP | 0.249
RRIRQRPPRLPRPRPRPRGLPRP | 0.00877
RRIRIRPPRLPRPRPRPQESPRP | -0.617
RRIRDRPPRLPRPRPRPWIQPRP | -0.653
RRIRVRPPRLPRPRPRPMAFPRP | -0.00965
RRIRYRPPRLPRPRPRPHPMPRP | -0.191
RRIRYRPPRLPRPRPRPRHDPRP | -0.237
RRIRMRPPRLPRPRPRPPPWPRP | 1.38
RRIRARPPRLPRPRPRPHQNPRP | 0.409
RRIRYRPPRLPRPRPRPVTWPRP | -0.207
RRIRPRPPRLPRPRPRPHIDPRP | -0.215
RRIRNRPPRLPRPRPRPPTKPRP | 0.46
